In publication PMC8219681, “Inhibition of MRN activity by a telomere protein motif” (Nature Communications, 2021):
Changes are numbered by the printed parent chain. In names and notes the source's numbering stands. Values belong to the binder of their own block, whether it stands above or below them.

How the values were obtained:
Rif2 = target: T1, Rif2 (Saccharomyces cerevisiae, UniProt Q06208 1-395); test: EMSA; 5 mM Mg2+, 1 mM Mn2+, 1 mM ATP; 25 mM Tris-acetate pH 7.5, 1 mM DTT, 5 mM Mg acetate, 1 mM Mn acetate, 0.25 mg/ml BSA, 1 mM PEP, 1 mM ATP, 80 U/ml pyruvate kinase, 1 nM DNA, 30 C 30 min; 6% PAGE in TAE; settings: protein: recombinant; tags: C-terminal His (N-terminal MBP cleaved with PreScission); label: 32P; blunt
T1 sequence: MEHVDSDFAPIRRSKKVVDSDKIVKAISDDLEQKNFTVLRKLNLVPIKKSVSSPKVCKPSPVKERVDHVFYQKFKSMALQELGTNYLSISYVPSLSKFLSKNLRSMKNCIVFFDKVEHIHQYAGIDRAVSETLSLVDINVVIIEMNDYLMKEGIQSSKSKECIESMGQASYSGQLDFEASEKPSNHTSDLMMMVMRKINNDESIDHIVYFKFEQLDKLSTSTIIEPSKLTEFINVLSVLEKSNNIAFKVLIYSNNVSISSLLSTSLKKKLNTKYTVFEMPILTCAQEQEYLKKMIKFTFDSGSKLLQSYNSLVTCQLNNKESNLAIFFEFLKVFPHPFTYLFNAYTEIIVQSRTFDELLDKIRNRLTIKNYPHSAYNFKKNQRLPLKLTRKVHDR

Rif2-min = target: T2, Rif2-min (Saccharomyces cerevisiae, UniProt Q06208 1-395, F8E;P10N); test: as above; settings: protein: recombinant; tags: C-terminal His (N-terminal MBP cleaved with PreScission); label: 32P; blunt
T2 sequence: T1 sequence with F8E, P10N

[1] = target: T3, MBP-Rif2-min (S. cerevisiae Rif2 F8E P10N), Q06208; test: pull-down (amylose-immobilized MBP-Rif2-min bait, Western blot with anti-Rad50 antibody, quantified); settings: chain shown with the change; three independent blots; mean with SEM; parent: est. 100; read off a plot
T3 chain: T1 sequence with F8E, P10N

B1: PC1253C/PC1253B 50 bp dsDNA (dsDNA)
DNA 1: AACGTCATAGACGATTACATTGCTAGGACATCTTTGCCCACGTTGACCCA
DNA 2: TGGGTCAACGTGGGCAAAGATGTCCTAGCAATGTAATCGTCTATGACGTT
modifications: 3'-terminal biotin (stated for the nuclease substrate; strand(s) ambiguous; streptavidin not mentioned for EMSA)
binding result (Rif2): binds
binding result (Rif2-min): binds

percent of parent (Relative value) [1]: 14
B2: m3; m1 Rad50:K81I; Rif2:F8E; Rif2:P10N (protein)
chain: MSAIYKLSIQGIRSFDSNDRETIEFGKPLTLIVGMNGSGKTTIIECLKYATTGDLPPNSKGGVFIHDPKITGEKDIRAQVILAFTSANGLNMIVTRNIQLLMKKTTTTFKTLEGQLVAINNSGDRSTLSTRSLELDAQVPLYLGVPKAILEYVIFCHQEDSLWPLSEPSNLKKKFDEIFQAMKFTKALDNLKSIKKDMSVDIKLLKQSVEHLKLDKDRSKAMKLNIHQLQTKIDQYNEEVSEIESQLNEITEKSDKLFKSNQDFQKILSKVENLKNTKLSISDQVKRLSNSIDILDLSKPDLQNLLANFSKVLMDKNNQLRDLETDISSLKDRQSSLQSLSNSLIRRQGELEAGKETYEKNRNHLSSLKEAFQHKFQGLSNIENSDMAQVNHEMSQFKAFISQDLTDTIDQFAKDIQLKETNLSDLIKSITVDSQNLEYNKKDRSKLIHDSEELAEKLKSFKSLSTQDSLNHELENLKTYKEKLQSWESENIIPKLNQKIEEKNNEMIILENQIEKFQDRIMKTNQQADLYAKLGLIKKSINTKLDELQKITEKLQNDSRIRQVFPLTQEFQRADLEMDFQKLFINMQKNIAINNKKMHELDRRYTNALYNLNTIEKDLQDNQKSKEKVIQLLSENLPEDCTIDEYNDVLEETELSYKTALENLKMHQTTLEFNRKALEIAERDSCCYLCSRKFENESFKSKLLQELKTKTDANFEKTLKDTVQNEKEYLHSLRLLEKHIITLNSINEKIDNSQKCLEKAKEETKTSKSKLDELEVDSTKLKDEKELAESEIRPLIEKFTYLEKELKDLENSSKTISEELSIYNTSEDGIQTVDELRDQQRKMNDSLRELRKTISDLQMEKDEKVRENSRMINLIKEKELTVSEIESSLTQKQNIDDSIRSKRENINDIDSRVKELEARIISLKNKKDEAQSVLDKVKNERDIQVRNKQKTVADINRLIDRFQTIYNEVVDFEAKGFDELQTTIKELELNKAQMLELKEQLDLKSNEVNEEKRKLADSNNEEKNLKQNLELIELKSQLQHIESEISRLDVQNAEAERDKYQEESLRLRTRFEKLSSENAGKLGEMKQLQNQIDSLTHQLRTDYKDIEKNYHKEWVELQTRSFVTDDIDVYSKALDSAIMKYHGLKMQDINRIIDELWKRTYSGTDIDTIKIRSDEVSSTVKGKSYNYRVVMYKQDVELDMRGRCSAGQKVLASIIIRLALSETFGANCGVIALDEPTTNLDEENIESLAKSLHNIINMRRHQKNFQLIVITHDEKFLGHMNAAAFTDHFFKVKRDDRQKSQIEWVDINRVTY
